Drawing on US11419948B2, “Functionalized microgels with fibrin binding elements” (Georgia Tech Research Corporation, priority 2013, dated 2022), this text covers clot degradation for one molecule.

The target in the experiment is T1, fibrin clots (Homo sapiens, UniProt P02671+P02675+P02679).
T1 sequence (P02671 36-866 limits assumed): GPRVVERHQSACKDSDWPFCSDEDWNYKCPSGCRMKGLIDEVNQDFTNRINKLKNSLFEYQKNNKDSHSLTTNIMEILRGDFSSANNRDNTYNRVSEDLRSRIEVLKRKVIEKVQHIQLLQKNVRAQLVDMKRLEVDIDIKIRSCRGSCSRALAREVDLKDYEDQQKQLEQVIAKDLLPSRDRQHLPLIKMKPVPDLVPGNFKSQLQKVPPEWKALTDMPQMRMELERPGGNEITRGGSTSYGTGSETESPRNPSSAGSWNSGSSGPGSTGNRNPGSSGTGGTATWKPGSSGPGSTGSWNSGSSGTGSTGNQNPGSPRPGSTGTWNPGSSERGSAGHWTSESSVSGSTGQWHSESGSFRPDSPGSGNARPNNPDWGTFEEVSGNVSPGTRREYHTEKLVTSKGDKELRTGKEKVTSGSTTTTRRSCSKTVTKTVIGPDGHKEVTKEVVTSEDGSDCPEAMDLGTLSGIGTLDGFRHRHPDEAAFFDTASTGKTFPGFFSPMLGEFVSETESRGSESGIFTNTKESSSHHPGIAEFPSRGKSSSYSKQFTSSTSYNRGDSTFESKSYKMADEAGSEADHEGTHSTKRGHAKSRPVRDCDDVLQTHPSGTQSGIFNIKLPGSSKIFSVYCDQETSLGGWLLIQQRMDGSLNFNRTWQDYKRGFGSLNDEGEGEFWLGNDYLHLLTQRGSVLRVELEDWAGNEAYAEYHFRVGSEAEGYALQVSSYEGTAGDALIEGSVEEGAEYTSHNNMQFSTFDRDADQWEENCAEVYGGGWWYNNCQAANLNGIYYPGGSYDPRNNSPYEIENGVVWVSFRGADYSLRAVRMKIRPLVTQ
T1 sequence (P02675 45-491 limits assumed): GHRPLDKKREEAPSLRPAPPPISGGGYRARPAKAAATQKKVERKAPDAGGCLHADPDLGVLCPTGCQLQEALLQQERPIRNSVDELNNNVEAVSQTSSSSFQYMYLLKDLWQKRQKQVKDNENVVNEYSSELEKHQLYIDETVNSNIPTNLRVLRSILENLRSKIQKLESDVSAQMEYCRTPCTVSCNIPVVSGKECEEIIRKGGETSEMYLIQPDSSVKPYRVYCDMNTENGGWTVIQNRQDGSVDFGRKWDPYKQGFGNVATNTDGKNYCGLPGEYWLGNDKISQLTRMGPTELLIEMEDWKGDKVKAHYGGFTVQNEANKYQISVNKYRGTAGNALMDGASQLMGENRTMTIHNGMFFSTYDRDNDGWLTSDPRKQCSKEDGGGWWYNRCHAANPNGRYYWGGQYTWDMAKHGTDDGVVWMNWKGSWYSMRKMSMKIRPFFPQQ
T1 sequence (P02679 27-453): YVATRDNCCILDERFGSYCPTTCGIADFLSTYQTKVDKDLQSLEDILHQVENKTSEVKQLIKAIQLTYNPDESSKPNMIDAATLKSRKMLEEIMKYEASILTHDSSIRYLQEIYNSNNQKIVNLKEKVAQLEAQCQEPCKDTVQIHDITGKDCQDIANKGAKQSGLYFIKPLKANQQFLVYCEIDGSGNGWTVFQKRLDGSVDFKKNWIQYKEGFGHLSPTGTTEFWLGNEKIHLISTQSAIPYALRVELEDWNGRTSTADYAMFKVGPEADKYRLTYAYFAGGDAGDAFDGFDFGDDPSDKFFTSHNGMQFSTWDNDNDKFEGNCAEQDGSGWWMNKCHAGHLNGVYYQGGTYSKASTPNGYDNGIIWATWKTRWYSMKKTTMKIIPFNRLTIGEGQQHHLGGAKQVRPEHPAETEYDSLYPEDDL
As to the kind of experiment: Clot polymerization/degradation assay (thrombin, tPA, plasminogen; turbidity). Type of experiment: biochemical. Conditions: versus control clots or clots with S11-ULC microgels. How it is done: Thrombin-initiated fibrin polymerization and degradation assays were used to evaluate clotting rates and persistence in the presence of H6 and S11 (control) ULC microgels at different microgel and fibrinogen concentrations. Competing polymerization and degradation reactions were created with a 96 well plate, and a final volume of 100 μL per well. Two solutions were made, a fibrinogen-microgel solution that was loaded initially, and a thrombin-tPA (tissue Plasminogen Activator)-plasminogen solution that was added in a 1:1 volume ratio. Final concentrations in each well were 2 mg/mL microgel and 2 mg/mL of fibrinogen, 5 mMol Ca^+, 0.25 U/mL of human thrombin (Enzyme Research Laboratories, Inc., South Bend, Ind.), 0.29 μg/mL of tissue Plasminogen Activator(tPA), and 10.8 μg/mL of Plasminogen. The remainder of the volume in the thrombin/tPA/plasminogen solution was made up of 25 mM Hepes, 150 mM NaCl buffer. Turbidity curves were be generated from absorbance measurements (SpectraMax M2 Microplate Reader, Molecular Devices, Sunnyvale, Calif.) at 350 nm, with reads taken every thirty seconds.

B1: PLPs: ultra-low crosslinked pNIPAm-AAc microgels conjugated to fibrin-specific sdFv H6 (conjugate)
VH: QVQLLESGGGLVQPGGSLRLSCAASGDRFTHNDMGWVRQAPGKGLEWVSTIPTTDGSTYYADSVKGRFTISRDNSKSTLYLQMNSLRAEDTAVYYCATGYMWKAPAYVKYWGQGTLVTVSSAAAEQKLISEEDLNSAAHYTDIG
Turning to B1, the clot degradation result is recorded as “more resistant to degradation”.
